Measured values taken from PMC7960600, “A DARPin targeting activated Mac-1 is a novel diagnostic tool and potential anti-inflammatory agent in myocarditis, sepsis and myocardial infarction” (Basic Research in Cardiology, 2021).

Target: T1, human ICAM-1 (R&D Systems) (human, UniProt P05362 28-480)
T1 construct: ICAM-1, human, recombinant, bought; No catalogue number printed; also called recombinant human ICAM-1; source: bought: R&D Systems
Experiment: ELISA; 96-well Maxisorb plates coated with 0.1 µM human or mouse ICAM-1 (or BSA, 30 µM); recombinant human or mouse αM I-domain added; anti-His-HRP, OD 450 nm
Conditions: both partners purified

T1 sequence (P05362 28-480): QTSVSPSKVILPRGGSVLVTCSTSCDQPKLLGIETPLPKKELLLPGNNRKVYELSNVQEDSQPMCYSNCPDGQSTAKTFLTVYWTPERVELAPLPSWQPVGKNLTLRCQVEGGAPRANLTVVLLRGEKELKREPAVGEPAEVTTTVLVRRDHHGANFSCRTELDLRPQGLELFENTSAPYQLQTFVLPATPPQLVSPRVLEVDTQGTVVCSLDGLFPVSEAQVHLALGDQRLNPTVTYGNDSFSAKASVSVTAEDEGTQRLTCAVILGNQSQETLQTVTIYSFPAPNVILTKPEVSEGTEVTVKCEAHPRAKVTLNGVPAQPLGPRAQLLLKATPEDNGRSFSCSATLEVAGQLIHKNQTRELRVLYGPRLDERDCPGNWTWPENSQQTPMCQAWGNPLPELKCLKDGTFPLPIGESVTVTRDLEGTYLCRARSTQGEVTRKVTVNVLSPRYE

binding result: binds
B1: recombinant human αM I-domain (wild type) (domain or fragment)
chain: RQQPQKFPEALRGCPQEDSDIAFLIDGSGSIIPHDFRRMKEFVSTVMEQLKKSKTLFSLMQYSEEFRIHFTFKEFQNNPNPRSLVKPITQLLGRTHTATGIRKVVRELFNITNGARKNAFKILVVITDGEKFGDPLGYEDVIPEADREGVIRYVIGVGDAFRSEKSRQELNTIASKPPRDHVFQVNNFEALKTIQNQLREKIFAIEGTQTGSSSSFEHEMSQEGFSAAALEHHHHHH
notes: I-domain of the αM chain (CD11b) of human Mac-1; no start methionine or leader is printed; source: E. coli BL21 DE3 (vector pET-20b(+)), purified (Ni beads, dialysed against PBS); not shown: His6, C-terminal, kept
